Legend:
26S human proteasomes = target: T1, 26S human proteasomes (Homo sapiens, UniProt O00487); experiment: In vitro Ubn-cyclin B1 degradation assay with human proteasomes; type: biochemical; settings: 4 nM human proteasomes, about 30 nM ubiquitinated cyclin B, Usp14 60 nM preincubated 5 min
T1 construct: HTBH (C); made in house; complex purified from it
Description: A stable 293 cell line expressing hRpn11-HTBH was used. Human proteasomes were purified as previously described with some modifications (Wang X and Huang L (2007) Identifying dynamic interactors of protein complexes by quantitative mass spectrometry. Mol Cell Proteomics. 2008 January; 7(1):46-57. Epub 2007 Oct. 12.
Assays were performed in proteasome preparation buffer (50 mM Tris [pH 7.5], 5 mM MgCl2, and 5 mM ATP) at ambient temperature for the indicated times. The 26S human proteasomes (4 nM) were incubated with approximately 30 nM of Ub-conjugated cyclin B1 as substrates. Cyclin was ubiquitinated using purified APC ubiquitin ligase. Where indicated, a 15-fold molar access of recombinant Usp14 over proteasomes were preincubated prior to adding Ubn-cyclin B1.
In the study shown in FIG. 14, 4 nM of human proteasomes were incubated with approximately 30 nM of ubiquitinated cyclin B in buffer (50 mM Tris [pH 7.5], 5 mM MgCl2, and 5 mM ATP). Where indicated, 15-fold molar access of Usp14 over proteasome (60 nM) was preincubated for 5 min before initiating degradation reactions. Ubiquitinated cyclin B was added at time zero. SDS-sample buffer was added to stop the reaction at the indicated time. Usp14 CA is a variant of Usp14 with a single amino acid substitution that eliminates the active site nucleophile of the enzyme (a cysteine to alanine replacement). […]

ubp6Δ proteasomes [1] = target: T2, ubp6Δ proteasomes (Saccharomyces cerevisiae, UniProt P30656+P43588); experiment: In vitro ub-cyclin B deubiquitination/degradation assay with purified yeast proteasomes; type: biochemical; settings: ubp6Δ proteasomes 135 nM; recombinant Ubp6 or Usp14 species 540 nM, Ubl and Ubl-MBP 1.35 μM, preincubated 5 min; immunoblot
T2 construct: proteasomes purified from ubp6Δ mutants; TEV-ProA (TEV site + protein A), chromosomally integrated (C); made in house
Description: Proteasomes (135 nM) were incubated with ub-cyclin Bin the presence of 1 mM ATP and buffer (50 mM Tris [pH 7.51, 1 mM EDTA, 5 mM MgCl2) for the indicated times. Reactions were terminated by the addition of 5×SDS Laemmli loading buffer (Leggett, et al. (2002). Multiple associated proteins regulate proteasome structure and function. Mol. Cell. 10, 495-507) and boiled for 5 min. Where indicated, recombinant, purified Ubp6 or Usp14 species (540 nM) were preincubated with proteasomes for 5 min prior to the reaction. […] Unless otherwise noted, immunoblots were visualized with anti-cyclin B1 polyclonal antibodies. Polyclonal antibodies recognizing Ubp6, Rpn5, Rpn12, and ubiquitin were used as indicated. Ub-cyclin B was added in molar excess over proteasome, generally on the order of 25-fold, except for FIGS. 4C, 6A and 6B, where the substrate:enzyme ratio was increased by a factor of five.
In the experiments of FIGS. 1, 4 (except FIG. 4C), and 6C, time points were sampled after the preparation of a single reaction mixture. The zero time points therefore reflect a lag which represents the amount of time required to sample the first time point after having prepared the reaction mixture. […] In the experiments of FIGS. 2, 4C, and 6 (except 6C), each time point was carried out as an independent reaction. The zero time points were prepared in the presence of 5×LLB, and accordingly, no processing could occur before time zero.
Ubiquitination of cyclin B was carried out. Briefly, for each 30 μl reaction, Anaphase Promoting Complex (APC) was immunopurified from 600 μl of mitotic Xenopus egg extract with 12 μg of anti-Cdc27 antibodies (AF3.1, Santa Cruz Biotechnologies, Santa Cruz, Calif.) bound to 30 μl of Affiprep Protein A beads (Bio-Rad, Hercules, Calif.). Beads were washed three times with XB high salt (10 mM potassium HEPES pH 7.7, 500 mM KCl, 0.1 mM CaCl2, 1 mM MgCl2), two times with XB (same but with 100 mM KCl), and then three times into the reaction buffer (20 mM Tris pH 7.5, 100 mM KCl, 2.5 mM MgCl2, 2 mM ATP). Ubiquitination reactions contained immunoprecipitated APC on 30 μl of beads, and 30 μl of a mix containing recombinant MBP-human E1 at 200 μg/ml, histidine-tagged Ubc4 at 66 μg/ml, ubiquitin at 1.25 mg/ml, and 50 μg/ml of histidine-tagged cyclin B1/cdc2 complex expressed in baculovirus. Reactions were incubated for 90 minutes at 22° C. with agitation on a shaker at 1,000 RPM. Reaction supernatants were combined with the eluate from the wash of beads with 20 μl of reaction buffer. Reactions were either used fresh after preparation or frozen at −80° C. until use with purified proteasomes.

ubiquitin ethyl ester = settings: cited from earlier work
ubp6Δ proteasomes [2] = target: T2, ubp6Δ proteasomes; experiment: Quantitation of proteasome inhibition by quantitative mass spectrometry of cyclin B; type: biochemical, yeast; settings: 20-minute incubation
Description: A standard substrate degradation assay was carried out, and analyzed in parallel by SDS-PAGE followed by Coomassie blue staining and immunoblot with anti-cyclin B antibody. Immunoblots were used to identify and excise the cyclin B-containing regions of the Coomassie-stained gel, and the lanes were analyzed by mass spectrometry.
To quantify the extent of proteasome inhibition by Ubp6, a method of quantitative mass spectrometry was utilized. After a 20-minute incubation, approximately half of the total cyclin B was degraded by ubp6Δ proteasomes (FIG. 4C).

proteasome = target: T3, proteasome (Saccharomyces cerevisiae, UniProt P43593); settings: cited from earlier work
T3 sequence (P43593 1-499): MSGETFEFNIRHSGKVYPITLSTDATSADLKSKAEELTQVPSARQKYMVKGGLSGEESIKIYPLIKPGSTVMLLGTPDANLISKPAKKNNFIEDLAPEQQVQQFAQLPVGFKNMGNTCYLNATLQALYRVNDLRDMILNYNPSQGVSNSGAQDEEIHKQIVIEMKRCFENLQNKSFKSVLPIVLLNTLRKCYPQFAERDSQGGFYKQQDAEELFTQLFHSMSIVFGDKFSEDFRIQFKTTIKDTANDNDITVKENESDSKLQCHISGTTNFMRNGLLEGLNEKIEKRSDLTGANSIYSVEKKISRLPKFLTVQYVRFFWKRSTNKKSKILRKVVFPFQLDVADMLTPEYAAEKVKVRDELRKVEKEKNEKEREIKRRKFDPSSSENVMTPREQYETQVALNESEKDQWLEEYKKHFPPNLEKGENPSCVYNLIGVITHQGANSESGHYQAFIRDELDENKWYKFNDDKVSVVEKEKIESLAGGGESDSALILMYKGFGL

[3] = target: T4, RP purified from a ubp6Δ mutant (Saccharomyces cerevisiae, UniProt P43588); experiment: Processing of ub-cyclin B by regulatory particle (RP); type: biochemical, yeast; settings: RP 135 nM, four-fold molar excess of Ubp6 species
T4 construct: TEV-ProA (TEV site + protein A), chromosomally integrated (C); made in house
Description: FIGS. 6A and 6B depict the processing of ub-cyclin B by RP (ubp6Δ) in the presence or absence of purified Ubp6. Reactions were visualized by immunoblotting with anti-cyclin B antibody or anti-ubiquitin antibody, as indicated.
FIG. 12 is an illustration depicting the RP-mediated disassembly of Ub-cyclin B conjugates by Ubp6. Proteasome regulatory particle (135 nM) purified from a ubp6Δ strain was combined with a four-fold molar excess of Ubp6, Ubp6-ublΔ, or Ubp6-C118A, and Ub-Cyclin B, and incubated for the indicated times. Reactions were visualized by immunoblot with anti-ubiquitin antibody. *represents a non-ubiquitin immunoreactive band.
A previously described procedure for purification of the proteasome (Leggett, et al. (2002). Multiple associated proteins regulate proteasome structure and function. Mol. Cell. 10, 495-507) was modified by adding 1 mM ATP and 5 mM MgCl2 to all purification buffers, and by washing resins with 100 bed vol. of buffer containing 50 mM NaCl, as opposed to 50 bed vol. of buffer containing 100 mM NaCl. RP was purified in the presence of ATP and MgCl2 as described (Leggett et al., 2002).
Proteasomes (135 nM) were incubated with ub-cyclin Bin the presence of 1 mM ATP and buffer (50 mM Tris [pH 7.51, 1 mM EDTA, 5 mM MgCl2) for the indicated times. […]

Ub-cyclin B = target: T5, Ub-cyclin B (Homo sapiens, UniProt P14635); experiment: Ub-cyclin B binding assay (GST pull down); settings: GST resin pull down, immunoblot
T5 construct: histidine tag; made in house; host or cells: cyclin B1/cdc2: baculovirus expression; GST-Ubp6: pGEX-4T-1 (bacterial)
T5 sequence (P14635 whole entry, other chains not shown): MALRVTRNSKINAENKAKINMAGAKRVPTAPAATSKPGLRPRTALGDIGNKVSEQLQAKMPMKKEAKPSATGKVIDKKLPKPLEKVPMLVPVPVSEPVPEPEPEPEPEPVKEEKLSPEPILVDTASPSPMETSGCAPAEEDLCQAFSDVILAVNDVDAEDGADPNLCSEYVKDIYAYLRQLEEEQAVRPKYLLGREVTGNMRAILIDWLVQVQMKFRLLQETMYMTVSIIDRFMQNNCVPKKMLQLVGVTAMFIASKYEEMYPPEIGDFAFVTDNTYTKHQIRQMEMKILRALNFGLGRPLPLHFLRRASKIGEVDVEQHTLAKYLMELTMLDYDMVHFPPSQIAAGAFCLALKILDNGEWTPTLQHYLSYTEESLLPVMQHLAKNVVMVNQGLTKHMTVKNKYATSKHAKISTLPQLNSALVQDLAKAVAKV
T5 sequence (P06493 whole entry partner, other chains not shown): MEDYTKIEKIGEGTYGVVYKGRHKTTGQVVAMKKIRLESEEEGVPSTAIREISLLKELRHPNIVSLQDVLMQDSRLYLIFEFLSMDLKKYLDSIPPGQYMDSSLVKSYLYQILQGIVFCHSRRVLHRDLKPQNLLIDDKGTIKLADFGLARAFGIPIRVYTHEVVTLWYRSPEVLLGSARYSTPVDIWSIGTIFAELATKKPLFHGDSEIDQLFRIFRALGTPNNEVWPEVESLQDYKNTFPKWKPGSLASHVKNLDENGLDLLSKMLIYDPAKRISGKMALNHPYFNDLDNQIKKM

## Usp14: human homolog of Ubp6, purified recombinant deubiquitinating enzyme
26S human proteasomes
  suppression of cyclin B degradation by human proteasomes: suppression of cyclin B degradation
ubp6Δ proteasomes [1]
  inhibition of cyclin B degradation: largely recapitulated the effects of Ubp6

B1: Ubp6: yeast proteasomal deubiquitinating enzyme, endogenous proteasome inhibitor; purified recombinant protein (protein)
chain: MSGETFEFNIRHSGKVYPITLSTDATSADLKSKAEELTQVPSARQKYMVKGGLSGEESIKIYPLIKPGSTVMLLGTPDANLISKPAKKNNFIEDLAPEQQVQQFAQLPVGFKNMGNTCYLNATLQALYRVNDLRDMILNYNPSQGVSNSGAQDEEIHKQIVIEMKRCFENLQNKSFKSVLPIVLLNTLRKCYPQFAERDSQGGFYKQQDAEELFTQLFHSMSIVFGDKFSEDFRIQFKTTIKDTANDNDITVKENESDSKLQCHISGTTNFMRNGLLEGLNEKIEKRSDLTGANSIYSVEKKISRLPKFLTVQYVRFFWKRSTNKKSKILRKVVFPFQLDVADMLTPEYAAEKVKVRDELRKVEKEKNEKEREIKRRKFDPSSSENVMTPREQYETQVALNESEKDQWLEEYKKHFPPNLEKGENPSCVYNLIGVITHQGANSESGHYQAFIRDELDENKWYKFNDDKVSVVEKEKIESLAGGGESDSALILMYKGFGL
Ubiquitin ethyl ester
  KM of Ubp6 for ubiquitin ethyl ester: so high as to be unmeasurable
ubp6Δ proteasomes [2]
  inhibition of degradation (cyclin B): approximately 70%
proteasome
  activation of Ubp6's catalytic activity on binding to the proteasome: over 300 fold
ubp6Δ proteasomes [1]
  inhibition of cyclin B degradation: marked inhibition of cyclin B degradation
[3]
  processing of ub-cyclin B conjugates by RP: chain shortening

B2: GST-Ubp6: GST fusion of Ubp6 on resin (protein)
chain: MSGETFEFNIRHSGKVYPITLSTDATSADLKSKAEELTQVPSARQKYMVKGGLSGEESIKIYPLIKPGSTVMLLGTPDANLISKPAKKNNFIEDLAPEQQVQQFAQLPVGFKNMGNTCYLNATLQALYRVNDLRDMILNYNPSQGVSNSGAQDEEIHKQIVIEMKRCFENLQNKSFKSVLPIVLLNTLRKCYPQFAERDSQGGFYKQQDAEELFTQLFHSMSIVFGDKFSEDFRIQFKTTIKDTANDNDITVKENESDSKLQCHISGTTNFMRNGLLEGLNEKIEKRSDLTGANSIYSVEKKISRLPKFLTVQYVRFFWKRSTNKKSKILRKVVFPFQLDVADMLTPEYAAEKVKVRDELRKVEKEKNEKEREIKRRKFDPSSSENVMTPREQYETQVALNESEKDQWLEEYKKHFPPNLEKGENPSCVYNLIGVITHQGANSESGHYQAFIRDELDENKWYKFNDDKVSVVEKEKIESLAGGGESDSALILMYKGFGL
modifications: left off: a dimerising Fc or GST
notes: GST fusion of Ubp6 on resin
Ub-cyclin B
  binding of Ub-cyclin B conjugates: No detectable binding

From patent US9201073B2, “Methods and compositions for enhancing proteasome activity” (President and Fellows of Harvard College, priority 2007, dated 2015)
